According to patent publication US20230143003A1 (JULIUS MAXIMILIANS UNIVERSIT T W RZBURG, published 2023):
Like-named read-outs stand apart in the source and are kept apart here.

B1: X3.6 (Fab, V domains shown)
VH: QSVKESEGGLFKPTDTLTLTCTVSGFSLSSYGVTWVRQAPGSGLEWIGYINTAGNTYYASWAKSRSTITRNTNENTVTLKMTSLTAADTATYFCARDSRNSLNIWGPGTLVTVSS
VL: DPMLTQTPSSTSTAVGDTVTIKCQASQSISSDLSWYQQKPGQRPKLLIYQASTLASGVPSRFKGSGYGTEYTLTISGVQREDAAIYYCLGGYADASYRTAFGGGTKLEIK
notes: one of the top 12 chimeric rabbit/human anti-human ROR2 Fabs selected from the focused HCDR3 mutagenesis library
B2: XBR2-401 Fab (parental chimeric rabbit/human anti-human ROR2 Fab) (Fab, V domains shown)
VH: QSVKESEGGLFKPTDTLTLTCTVSGFSLSSYGVTWVRQAPGSGLEWIGYINTAGNTYYASWAKSRSTITRNTNENTVTLKMTSLTAADTATYFCARDWTSLNIWGPGTLVTVSS
VL: DPMLTQTPSSTSTAVGDTVTIKCQASQSISSDLSWYQQKPGQRPKLLIYQASTLASGVPSRFKGSGYGTEYTLTISGVQREDAAIYYCLGGYADASYRTAFGGGTKLEIK
notes: Chimeric rabbit/human Fab (rabbit variable domains, human constant domains, kappa light chain, His tag)
B3: X4.21 (Fab, V domains shown)
VH: QSVKESEGGLFKPTDTLTLTCTVSGFSLSSYGVTWVRQAPGSGLEWIGYINTAGNTYYASWAKSRSTITRNTNENTVTLKMTSLTAADTATYFCARDSGVVSLNIWGPGTLVTVSS
VL: DPMLTQTPSSTSTAVGDTVTIKCQASQSISSDLSWYQQKPGQRPKLLIYQASTLASGVPSRFKGSGYGTEYTLTISGVQREDAAIYYCLGGYADASYRTAFGGGTKLEIK
notes: as for B1
B4: X4.12 (Fab, V domains shown)
VH: QSVKESEGGLFKPTDTLTLTCTVSGFSLSSYGVTWVRQAPGSGLEWIGYINTAGNTYYASWAKSRSTITRNTNENTVTLKMTSLTAADTATYFCARDYMMNSLNIWGPGTLVTVSS
VL: DPMLTQTPSSTSTAVGDTVTIKCQASQSISSDLSWYQQKPGQRPKLLIYQASTLASGVPSRFKGSGYGTEYTLTISGVQREDAAIYYCLGGYADASYRTAFGGGTKLEIK
notes: as for B1
B5: X4.9 (Fab, V domains shown)
VH: QSVKESEGGLFKPTDTLTLTCTVSGFSLSSYGVTWVRQAPGSGLEWIGYINTAGNTYYASWAKSRSTITRNTNENTVTLKMTSLTAADTATYFCARDNGSTSLNIWGPGTLVTVSS
VL: DPMLTQTPSSTSTAVGDTVTIKCQASQSISSDLSWYQQKPGQRPKLLIYQASTLASGVPSRFKGSGYGTEYTLTISGVQREDAAIYYCLGGYADASYRTAFGGGTKLEIK
notes: as for B1
B6: X2.7 (Fab, V domains shown)
VH: QSVKESEGGLFKPTDTLTLTCTVSGFSLSSYGVTWVRQAPGSGLEWIGYINTAGNTYYASWAKSRSTITRNTNENTVTLKMTSLTAADTATYFCARDSMSLNIWGPGTLVTVSS
VL: DPMLTQTPSSTSTAVGDTVTIKCQASQSISSDLSWYQQKPGQRPKLLIYQASTLASGVPSRFKGSGYGTEYTLTISGVQREDAAIYYCLGGYADASYRTAFGGGTKLEIK
notes: as for B1
B7: X3.13 (Fab, V domains shown)
VH: QSVKESEGGLFKPTDTLTLTCTVSGFSLSSYGVTWVRQAPGSGLEWIGYINTAGNTYYASWAKSRSTITRNTNENTVTLKMTSLTAADTATYFCARDKGWSLNIWGPGTLVTVSS
VL: DPMLTQTPSSTSTAVGDTVTIKCQASQSISSDLSWYQQKPGQRPKLLIYQASTLASGVPSRFKGSGYGTEYTLTISGVQREDAAIYYCLGGYADASYRTAFGGGTKLEIK
notes: as for B1
B8: X2.23 (Fab, V domains shown)
VH: QSVKESEGGLFKPTDTLTLTCTVSGFSLSSYGVTWVRQAPGSGLEWIGYINTAGNTYYASWAKSRSTITRNTNENTVTLKMTSLTAADTATYFCARDYTSLNIWGPGTLVTVSS
VL: DPMLTQTPSSTSTAVGDTVTIKCQASQSISSDLSWYQQKPGQRPKLLIYQASTLASGVPSRFKGSGYGTEYTLTISGVQREDAAIYYCLGGYADASYRTAFGGGTKLEIK
notes: as for B1
B9: X3.21 (Fab, V domains shown)
VH: QSVKESEGGLFKPTDTLTLTCTVSGFSLSSYGVTWVRQAPGSGLEWIGYINTAGNTYYASWAKSRSTITRNTNENTVTLKMTSLTAADTATYFCARDGLTSLNIWGPGTLVTVSS
VL: DPMLTQTPSSTSTAVGDTVTIKCQASQSISSDLSWYQQKPGQRPKLLIYQASTLASGVPSRFKGSGYGTEYTLTISGVQREDAAIYYCLGGYADASYRTAFGGGTKLEIK
notes: as for B1
B10: X4.35 (Fab, V domains shown)
VH: QSVKESEGGLFKPTDTLTLTCTVSGFSLSSYGVTWVRQAPGSGLEWIGYINTAGNTYYASWAKSRSTITRNTNENTVTLKMTSLTAADTATYFCARDSRRKSLNIWGPGTLVTVSS
VL: DPMLTQTPSSTSTAVGDTVTIKCQASQSISSDLSWYQQKPGQRPKLLIYQASTLASGVPSRFKGSGYGTEYTLTISGVQREDAAIYYCLGGYADASYRTAFGGGTKLEIK
notes: as for B1
B11: X4.3 (Fab, V domains shown)
VH: QSVKESEGGLFKPTDTLTLTCTVSGFSLSSYGVTWVRQAPGSGLEWIGYINTAGNTYYASWAKSRSTITRNTNENTVTLKMTSLTAADTATYFCARDWGNWSLNIWGPGTLVTVSS
VL: DPMLTQTPSSTSTAVGDTVTIKCQASQSISSDLSWYQQKPGQRPKLLIYQASTLASGVPSRFKGSGYGTEYTLTISGVQREDAAIYYCLGGYADASYRTAFGGGTKLEIK
notes: as for B1
B12: X2.12 (Fab, V domains shown)
VH: QSVKESEGGLFKPTDTLTLTCTVSGFSLSSYGVTWVRQAPGSGLEWIGYINTAGNTYYASWAKSRSTITRNTNENTVTLKMTSLTAADTATYFCARDTMSLNIWGPGTLVTVSS
VL: DPMLTQTPSSTSTAVGDTVTIKCQASQSISSDLSWYQQKPGQRPKLLIYQASTLASGVPSRFKGSGYGTEYTLTISGVQREDAAIYYCLGGYADASYRTAFGGGTKLEIK
notes: as for B1
B13: hX3.12.8 Fab (Fab, V domains shown)
VH: EQQVVESGGGLVQPGGSLRLSCAASGFSLSSYGVTWVRQAPGKGLEWVGYINTAGNTYYASWAKSRFTISRDNSKNTVYLQMNSLRAEDTAVYYCARDDRWSLNIWGQGTLVTVSS
VL: DPMLTQSPSSLSASVGDRVTITCQASQSISSDLSWYQQKPGKAPKLLIYQASTLASGVPSRFKGSGYGTEYTLTISSLQPEDFATYYCLGGYADASYRTAFGGGTKLEIK
notes: The text says that hX3.12.5 to hX3.12.8 all utilized VL2
B14: hX3.12.7 Fab (Fab, V domains shown)
VH: EQQVVESGGGLVQPGGSLRLSCAVSGFSLSSYGVTWVRQAPGKGLEWIGYINTAGNTYYASWAKSRFTISRNTNENTVYLQMNSLRAEDTAVYFCARDDRWSLNIWGQGTLVTVSS
VL: DPMLTQSPSSLSASVGDRVTITCQASQSISSDLSWYQQKPGKAPKLLIYQASTLASGVPSRFKGSGYGTEYTLTISSLQPEDFATYYCLGGYADASYRTAFGGGTKLEIK
notes: as for B13

What was measured:
[1] = molecular target: T1, hROR2-Fc (human ROR2 Fc fusion protein) (human, UniProt Q01974 34-403, limits assumed); assay: SPR (Biacore X100), Fc-hROR2 captured on CM5 chip via mouse anti-human Fcγ mAb, Fab as analyte, 1:1 binding model
T1 construct: Given both as hROR2-Fc and as Fc-hROR2, so the order of the two parts is not certain; also called Fc-hROR2; not shown: human Fc part (captured by a mouse anti-human IgG CH2 / Fcγ mAb)

[2] = molecular target: T1, hROR2-Fc (human ROR2 Fc fusion protein); assay: as above; remark: listed apart in the source
Procedure: (§1) A CM5 chip immobilized with a mouse anti-human Fcγ mAb was used to capture Fc-hROR2.
(§2) Kinetic and thermodynamic parameters for the ROR2 binding of purified anti-ROR2 Fab variants were measured by use of SPR as previously described [29], performed on a Biacore X100 instrument using Biacore reagents and software (GE Healthcare). Briefly, a CM5 sensor chip was immobilized with a mouse anti-human IgG CH2 mAb in order to capture the hROR2-Fc antigen.

[3] = molecular target: T1, hROR2-Fc (human ROR2 Fc fusion protein); assay: SPR, Biacore X100; hROR2-Fc captured, Fab injected
Procedure: as §1, §2

Binder	Kd [1]	koff [1]	kon [1]	koff [2]	kon [2]	Kd [3]
B1	3.2 nM	0.00019 s⁻¹	60000 M⁻¹ s⁻¹			
B2	7 nM					
B3	3.4 nM	8.1e-05 s⁻¹	24000 M⁻¹ s⁻¹			
B4	2.8 nM	0.00015 s⁻¹	53000 M⁻¹ s⁻¹			
B5	10 nM	0.00034 s⁻¹	33000 M⁻¹ s⁻¹			
B6	1.5 nM	0.0001 s⁻¹	69000 M⁻¹ s⁻¹			
B7	1.1 nM	2.7e-05 s⁻¹	26000 M⁻¹ s⁻¹			
B8	1.4 nM	4.7e-05 s⁻¹	33000 M⁻¹ s⁻¹			
B9	1.9 nM	9.2e-05 s⁻¹	49000 M⁻¹ s⁻¹			
B10	31 nM	0.0017 s⁻¹	54000 M⁻¹ s⁻¹			
B11	1.3 nM	3.8e-05 s⁻¹	30000 M⁻¹ s⁻¹			
B12	1.2 nM	4e-05 s⁻¹	34000 M⁻¹ s⁻¹			
B13				0.00067 s⁻¹	130000 M⁻¹ s⁻¹	5.2 nM
B14				0.00016 s⁻¹	110000 M⁻¹ s⁻¹	1.4 nM
